Paper PMC8996344 (Nature immunology, 2021)
Substitutions are numbered along the chain they refer to. In names and notes the source's numbering stands.

B1: Roquin-1^aa2-440;E212K (domain or fragment, UniProt Q4VGL6 2-440, looked up)
chain: PVQAPQWTDFLSCPICTQTFDETIRKPISLGCGHTVCKMCLNKLHRKACPFDQTTINTDIELLPVNSALLQLVGAQIPEQQPITLCSGVEDTKHYEEAKKCVEELALYLKPLSSARGVGLNSTTQSVLSRPMQRKLVTLVHCQLVEEEGRIRAMRAARSLGERTVTELILQHQNPQQLSSNLWAAVRARGCQFLGPAMQEEALKLVLLALKDGSALSRKVLVLFVVQRLEPRFPQASKTSIGHVVQLLYRASCFKVTKRDEDSSLMQLKEEFRTYEALRREHDSQIVQIAMEAGLRIAPDQWSSLLYGDQSHKSHMQSIIDKLQTPASFAQSVQELTIALQRTGDPANLNRLRPHLELLANIDPSPDAPPPTWEQLENGLVAVRTVVHGLVDYIQNHSKKGADQQQPPQHSKYKTYMCRDMKQRGGCPRGASCTFAHSQ
B2: Roquin-1^aa2-440;L209Y (domain or fragment, UniProt Q4VGL6 2-440, looked up)
chain: B1 chain with L208Y, K211E
B3: Roquin-1^aa2-440;M199R (domain or fragment, UniProt Q4VGL6 2-440, looked up)
chain: B1 chain with M198R, K211E

Molecular target: T1, GST–regnase-1^D141N (human, UniProt Q5D1E8 1-599, D141N)
T1 sequence (looked up): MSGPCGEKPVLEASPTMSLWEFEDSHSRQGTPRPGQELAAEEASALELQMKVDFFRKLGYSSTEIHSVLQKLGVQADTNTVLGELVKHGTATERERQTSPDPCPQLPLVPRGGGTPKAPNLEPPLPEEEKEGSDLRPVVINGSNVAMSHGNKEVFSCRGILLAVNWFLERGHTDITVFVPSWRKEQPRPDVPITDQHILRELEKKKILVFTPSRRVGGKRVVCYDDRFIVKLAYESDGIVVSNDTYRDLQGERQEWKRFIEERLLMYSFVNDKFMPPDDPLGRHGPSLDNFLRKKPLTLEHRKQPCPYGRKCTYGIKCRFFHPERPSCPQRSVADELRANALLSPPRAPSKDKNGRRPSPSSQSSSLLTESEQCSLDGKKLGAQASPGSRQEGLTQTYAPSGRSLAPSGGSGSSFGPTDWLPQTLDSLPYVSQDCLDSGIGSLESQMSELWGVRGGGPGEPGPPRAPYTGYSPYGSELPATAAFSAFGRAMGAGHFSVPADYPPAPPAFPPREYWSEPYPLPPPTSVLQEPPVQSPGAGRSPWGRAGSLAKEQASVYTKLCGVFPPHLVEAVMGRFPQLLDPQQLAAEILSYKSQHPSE
Assay: pull-down

| Binder | fold reduction of binding against SUMO–roquin-1^aa2-440 wild type [fold] |
| --- | --- |
| B1 | 2 |
| B2 | 2 |
| B3 | 2 |
